Values of other authors in article PMC6916721.

Columns and labels:
[1] = molecular target: Amicyanin, reduced (Cu+) form (UniProt P22364); details: pH
[2] = molecular target: His95 (UniProt position 121, YHCTPHPFMRG); details: reduced (Cu+) amicyanin, free (not in complex with MADH)

Amicyanin, reduced (Cu+) form, sequence (P22364 whole entry): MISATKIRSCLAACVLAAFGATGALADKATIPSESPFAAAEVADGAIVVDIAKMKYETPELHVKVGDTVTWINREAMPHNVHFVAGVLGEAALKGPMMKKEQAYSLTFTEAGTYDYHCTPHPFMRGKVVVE

| Substance | pKa, His95 of amicyanin (copper ligand, reduced Cu+ state) [1] | pKa [2] |
| --- | --- | --- |
| Methylamine dehydrogenase (MADH) | 7.7 pH units | – |
| Amicyanin (Paracoccus denitrificans) | – | 7.7 |
